Values of other authors in patent US20060024387A1, “Methods and compositions for increasing milk production in animals” (priority 2004, published 2006).

Details: injection

B1: BST: Hormone injected to increase milk production in lactating cows (protein, UniProt P01246 27-217, looked up)
Somatotropin: AFPAMSLSGLFANAVLRAQHLHQLAADTFKEFERTYIPEGQRYSIQNTQVAFCFSETIPAPTGKNEAQQKSDLELLRISLLLIQSWLGPLQFLSRVFTNSLVFGTSDRVYEKLKDLEEGILALMRELEDGTPRAGQILKQTYDKFDTNMRSDDALLKNYGLLSCFRKDLHKTETYLRVMKCRRFGEASCAF
- effect on milk production: increase milk production
